Source: patent US7998688B2, “Inhibition of EMT induction in tumor cells by anti-cancer agents” (OSI Pharmaceuticals, LLC, priority 2008, dated 2011)
Read-outs that look alike come from different tables or passages of the source.

B1: TGFβ3: Human recombinant mature TGF-beta3 prepared and purified at OSI Pharmaceuticals; EMT inducer (protein, UniProt P10600 301-412, looked up)
Transforming growth factor …: ALDTNYCFRNLEENCCVRPLYIDFRQDLGWKWVHEPKGYYANFCSGPCPYLRSADTTHSTVLGLYNTLNPEASASPCCVPQDLEPLTILYYVGRTPKVEQLSNMVVKSCKCS
modifications: Transforming growth factor beta-3
notes: Human recombinant mature TGF-beta3 prepared and purified at OSI Pharmaceuticals; EMT inducer

Assays:
[1] = phase III, monotherapy, patients with advanced, treatment-refractory NSCLC; cited from earlier work
[2] = phase III, first-line, in combination with gemcitabine, pancreatic cancer; cited from earlier work
H358 cells = assay: TaqMan quantitative RT-PCR of ZEB1 and Snail mRNA in TGFβ3-treated H358 cells; assay type: cell-based, human; conditions: H358 cells without PAK knockdown, 72 h post-TGFβ3, TaqMan (FIG. 4)
Procedure: siRNA knockdown and TGFβ3 treatment: For PAK1 and PAK2 siRNA knockdown in H358 cells, cells were seeded at a density of 5×10^4 cells/well in 6-well dishes. Next day, the cells were transfected using Lipofectamine 2000 (Invitrogen, 11668-019) with 62.5 nM PAK1 (Invitrogen; validated stealth siRNAduplex2, 12936-54) 62.5 nM PAK2 (Invitrogen; validated stealth siRNA duplex 1, 12936-55), 62.5 nM PAK1 & 62.5 nM PAK2 siRNA, or 62.5 nM negative control (Invitrogen, 12935-300) according to the manufacturer's instructions. Transfection reagent was replaced 4 hours post transfection with fresh media. The cells were re-transfected as above 48 hrs after initial transfection. 4 hours post-transfection, the transfection reagent was replaced with fresh media plus or minus 10 nM TGFβ3.
RNA isolation and TaqMan analysis: For TaqMan analysis, total RNA was isolated 72 hours after TGFβ3 treatment of H358 cells (5 and 3 days after first and second siRNA transfections). SuperArray's (SuperArray Bioscience Corp. Frederick, Md. 21704, USA) Total RNA Isolation Kit (GA-013) was used. Subsequently first strand cDNAs were made using RT PCR Array First Strand Kit (SuperArray; C-02). Quantitative-RT-PCR analyses were performed using Taqman Gene Expression Assays (Applied Biosystems, Foster City, Calif.) for PAK1, PAK2, Zeb1, and Snail.

H358 NSCLC cells = assay: TGFβ3 induction of EMT in H358 NSCLC cells (western blot); assay type: cell-based, human; conditions: TGFβ3 1 nM, 7 days (FIG. 1)
Procedure: FIG. 1: TGFβ3 induces EMT in H358 NSCLC cells. H358 cells were treated with TGFβ3 (1 nM, 7 days) in the presence or absence of the TGFβ receptor kinase inhibitor SB43 1542. Protein extracts were analyzed by western blot using the indicated antibodies.
Western blot analysis: For western blot analysis in H358 cells, cells were harvested 72 hrs after the addition of TGFβ3 addition (5 and 3 days after first and second siRNA transfections). For western blot analysis in HCT116/tet-on/Snail-Flag cells, cells were harvested 24 hours after Dox addition. […] Cell lysates were cleared of insoluble material by centrifugation at 15,000×g for 5 minutes at 4° C. Protein concentrations were measured in the resultant supernatant using the BCA protein analysis kit ([…].; 23225). 15 ug total lysate was used for SDS-PAGE followed by immunoblotting with the appropriate antibodies. The following antibodies were used: E-cadherin (Cell Signaling, Beverly, Mass.; 3195), vimentin (BD Biosciences, San Jose, Calif.; 550513), ErbB3 (Santa Cruz Biotechnology, Santa Cruz, Calif.; sc285), PAK1 (Cell Signaling, 2062), PAK2 (Cell Signaling, 2068), Flag (Sigma, F3165), ZEB1 (Santa Cruz, sc25388), N-Cadherin (Santa Cruz, sc7939), Fibronection (BD, 610078), β-action (Sigma, A1978).

Molecule	disease progression [1]	survival [1]	worsening of lung cancer-related symptoms [1]	survival [2]	Snail mRNA induction by TGFβ3 (H358 cells)	ZEB1 mRNA induction by TGFβ3 (H358 cells)	expression of epithelial markers (E-cadherin and ErbB3) (H358 NSCLC cells)	expression of mesenchymal markers (vimentin, N-cadherin, and fibronectin) (H358 NSCLC cells)	protein levels of the EMT driver ZEB1 (H358 NSCLC cells)
C#Cc1cccc(Nc2ncnc3cc(OCCOC)c(OCCOC)cc23)c1 [erlotinib, [6,7-bis(2-methoxyethoxy)-4-quinazolin-4-yl]-(3-ethynylphenyl) amine]	delayed disease progression	significantly prolonged survival	delayed worsening of lung cancer-related symptoms	improves survival					
B1					~2.8 fold	6 fold	downregulating the expression of epithelial markers (E-cadherin and ErbB3)	upregulating that of mesenchymal markers (vimentin, N-cadherin, and fibronectin)	increase in the protein levels of the EMT driver ZEB1
